US20030175735

Test system: recombinant protein ACp5 (p5 cleavage site of the HIV protease inserted between amino acids 224 and 225 of the adenyl cyclase of B. pertussis)

wild-type protease of the HIV virus
cleavage in vitro: The cleavage of ACp5 by the HIV protease was also shown in vitro | phenotype on McConkey maltose medium of DHT1 bacteria cotransformed with pKACp5 and pUCVIH: exhibit a Cya^- phenotype (white colonies on McConkey maltose medium) in the absence of protease inhibitors
